Columns and labels:
Experiment in all cases: cell-based or functional assay
[1] = target: HIV-1 Env of pseudovirus 0260.v5.c36 (HIV-1)
[2] = target: HIV-1 Env of pseudovirus 1394C9G1(Rev-) (HIV-1)
[3] = target: HIV-1 Env of pseudovirus 191084 B7-19 (HIV-1)
[4] = target: HIV-1 Env of pseudovirus 246F C1G (HIV-1)
[5] = target: HIV-1 Env of pseudovirus 7030102001E5(Rev-) (HIV-1)
[6] = target: HIV-1 Env of pseudovirus AC10.0.29 (HIV-1)
[7] = target: HIV-1 Env of pseudovirus BF1266.431a (HIV-1)
[8] = target: HIV-1 Env of pseudovirus CAAN5342.A2 (HIV-1)
[9] = target: HIV-1 Env of pseudovirus Ce703010054_2A2 (HIV-1)
[10] = target: HIV-1 Env of pseudovirus Du172.17 (HIV-1)
[11] = target: HIV-1 Env of pseudovirus Du422.1 (HIV-1)
[12] = target: HIV-1 Env of pseudovirus HIV-16055-2.3 (HIV-1)
[13] = target: HIV-1 Env of pseudovirus Q23.17 (HIV-1)
[14] = target: HIV-1 Env of pseudovirus REJO4541.67 (HIV-1)
[15] = target: HIV-1 Env of pseudovirus SC422661.8 (HIV-1)
[16] = target: HIV-1 Env of pseudovirus T250-4 (HIV-1)
[17] = target: HIV-1 Env of pseudovirus THRO4156.18 (HIV-1)
[18] = target: HIV-1 Env of pseudovirus WITO4160.33 (HIV-1)
[19] = target: HIV-1 Env of pseudovirus ZM197M.PB7 (HIV-1)
[20] = target: HIV-1 Env of pseudovirus ZM53M.PB12 (HIV-1)

| Substance | IC50, titer in TZM.bl cells [1] [µg/mL] | IC80, titer in TZM.bl cells [1] [µg/mL] | IC50, titer in TZM.bl cells [2] [µg/mL] | IC80, titer in TZM.bl cells [2] [µg/mL] | IC50, titer in TZM.bl cells [3] [µg/mL] | IC80, titer in TZM.bl cells [3] [µg/mL] | IC50, titer in TZM.bl cells [4] [µg/mL] | IC80, titer in TZM.bl cells [4] [µg/mL] | IC50, titer in TZM.bl cells [5] [µg/mL] | IC80, titer in TZM.bl cells [5] [µg/mL] | IC50, titer in TZM.bl cells [6] [µg/mL] | IC80, titer in TZM.bl cells [6] [µg/mL] | IC50, titer in TZM.bl cells [7] [µg/mL] | IC80, titer in TZM.bl cells [7] [µg/mL] | IC50, titer in TZM.bl cells [8] [µg/mL] | IC80, titer in TZM.bl cells [8] [µg/mL] | IC50, titer in TZM.bl cells [9] [µg/mL] | IC80, titer in TZM.bl cells [9] [µg/mL] | IC50, titer in TZM.bl cells [10] [µg/mL] | IC80, titer in TZM.bl cells [10] [µg/mL] | further results |
| --- | --- | --- | --- | --- | --- | --- | --- | --- | --- | --- | --- | --- | --- | --- | --- | --- | --- | --- | --- | --- | --- |
| PG9 (antibody) | 1.69 | 9 | 0.029 | 0.114 | 0.043 | 0.202 | > 50 | > 50 | > 50 | > 50 | 0.117 | 0.845 | 0.026 | 0.088 | 4.6 | 27 | 0.022 | 0.103 | 0.606 | 1.6 | IC50, titer in TZM.bl cells [11]: 0.614 µg/mL; IC80, titer in TZM.bl cells [11]: 10.4 µg/mL; IC50, titer in TZM.bl cells [12]: 0.021 µg/mL; IC80, titer in TZM.bl cells [12]: 0.06 µg/mL; IC50, titer in TZM.bl cells [13]: 0.027 µg/mL; IC80, titer in TZM.bl cells [13]: 0.082 µg/mL; IC50, titer in TZM.bl cells [14]: 0.012 µg/mL; IC80, titer in TZM.bl cells [14]: 0.163 µg/mL; IC50, titer in TZM.bl cells [15]: 0.553 µg/mL; IC80, titer in TZM.bl cells [15]: 7.05 µg/mL; IC50, titer in TZM.bl cells [16]: 0.005 µg/mL; IC80, titer in TZM.bl cells [16]: 0.014 µg/mL; IC50, titer in TZM.bl cells [17]: 24.5 µg/mL; IC80, titer in TZM.bl cells [17]: > 50 µg/mL; IC50, titer in TZM.bl cells [18]: 0.01 µg/mL; IC80, titer in TZM.bl cells [18]: 0.037 µg/mL; IC50, titer in TZM.bl cells [19]: 0.899 µg/mL; IC80, titer in TZM.bl cells [19]: 4.52 µg/mL; IC50, titer in TZM.bl cells [20]: 0.069 µg/mL; IC80, titer in TZM.bl cells [20]: 0.221 µg/mL |
| PG16 (antibody) | 1.54 | 36.1 | 0.008 | 0.056 | 0.024 | 0.238 | > 50 | > 50 | > 50 | > 50 | 0.023 | 0.417 | 0.003 | 0.009 | 1.83 | 33 | 0.008 | 0.053 | 0.033 | 0.213 | IC50, titer in TZM.bl cells [11]: 0.261 µg/mL; IC80, titer in TZM.bl cells [11]: 33.8 µg/mL; IC50, titer in TZM.bl cells [12]: 0.17 µg/mL; IC80, titer in TZM.bl cells [12]: > 0.25 µg/mL; IC50, titer in TZM.bl cells [13]: 0.008 µg/mL; IC80, titer in TZM.bl cells [13]: 0.043 µg/mL; IC50, titer in TZM.bl cells [14]: 0.039 µg/mL; IC80, titer in TZM.bl cells [14]: 13.4 µg/mL; IC50, titer in TZM.bl cells [15]: 0.858 µg/mL; IC80, titer in TZM.bl cells [15]: > 50 µg/mL; IC50, titer in TZM.bl cells [16]: 0.002 µg/mL; IC80, titer in TZM.bl cells [16]: 0.005 µg/mL; IC50, titer in TZM.bl cells [17]: 6.83 µg/mL; IC80, titer in TZM.bl cells [17]: > 50 µg/mL; IC50, titer in TZM.bl cells [18]: 0.002 µg/mL; IC80, titer in TZM.bl cells [18]: 0.012 µg/mL; IC50, titer in TZM.bl cells [19]: 1.5 µg/mL; IC80, titer in TZM.bl cells [19]: 22.8 µg/mL; IC50, titer in TZM.bl cells [20]: 0.007 µg/mL; IC80, titer in TZM.bl cells [20]: 0.051 µg/mL |

Source: patent US20230002480A1
